Earlier results on one substance are cited in patent US20080070838A1, “Growth Factor Treatment for Asthma” (University of Southampton, priority 2004, published 2008).

The test system of the data set is airway fibrosis. The settings on record: mouse, in vivo.

Consider “TGFα: structural homologue of EGF and a ligand for the EGF receptor”, for which the airway fibrosis entry is on record as “marked airway fibrosis”.
